For this test, the target named is Postsynaptic density lattice (PSDL) preparation (OG-11U-IS) (rat). The test can be described thus: negative-staining electron microscopy of grid-immobilised structures incubated with polymerizing tubulin; PSDL or PSD immobilised on the Formvar membrane of an EM grid, blocked with NGS and BSA at 0°C and 37°C, placed on a droplet of tubulin (ML116, 2 mg/mL, GTB, 1 mM GTP, 5% glycerol) polymerizing at 37°C; fixed with 1% glutaraldehyde, stained with nano-W.

In turn, “Tubulin MAP-rich, ML116, Cytoskeleton Inc. (from UniProt P02550 1-451) (complex)” had a percent of MT ends associated with PSDL and/or PSDL-like structures of 30.9%.

The record behind these values is publication PMC12093452.
